{
  "source": "patent US20100144634A1",
  "about": "(published 2010)",
  "key": {"murine vWF": {"biological_target": "T1, murine vWF (murine, UniProt Q8CIZ8 764-2813, limits assumed)", "T1 construct": "also called immobilized murine vWF", "T1 sequence (Q8CIZ8 764-2813 limits assumed)": "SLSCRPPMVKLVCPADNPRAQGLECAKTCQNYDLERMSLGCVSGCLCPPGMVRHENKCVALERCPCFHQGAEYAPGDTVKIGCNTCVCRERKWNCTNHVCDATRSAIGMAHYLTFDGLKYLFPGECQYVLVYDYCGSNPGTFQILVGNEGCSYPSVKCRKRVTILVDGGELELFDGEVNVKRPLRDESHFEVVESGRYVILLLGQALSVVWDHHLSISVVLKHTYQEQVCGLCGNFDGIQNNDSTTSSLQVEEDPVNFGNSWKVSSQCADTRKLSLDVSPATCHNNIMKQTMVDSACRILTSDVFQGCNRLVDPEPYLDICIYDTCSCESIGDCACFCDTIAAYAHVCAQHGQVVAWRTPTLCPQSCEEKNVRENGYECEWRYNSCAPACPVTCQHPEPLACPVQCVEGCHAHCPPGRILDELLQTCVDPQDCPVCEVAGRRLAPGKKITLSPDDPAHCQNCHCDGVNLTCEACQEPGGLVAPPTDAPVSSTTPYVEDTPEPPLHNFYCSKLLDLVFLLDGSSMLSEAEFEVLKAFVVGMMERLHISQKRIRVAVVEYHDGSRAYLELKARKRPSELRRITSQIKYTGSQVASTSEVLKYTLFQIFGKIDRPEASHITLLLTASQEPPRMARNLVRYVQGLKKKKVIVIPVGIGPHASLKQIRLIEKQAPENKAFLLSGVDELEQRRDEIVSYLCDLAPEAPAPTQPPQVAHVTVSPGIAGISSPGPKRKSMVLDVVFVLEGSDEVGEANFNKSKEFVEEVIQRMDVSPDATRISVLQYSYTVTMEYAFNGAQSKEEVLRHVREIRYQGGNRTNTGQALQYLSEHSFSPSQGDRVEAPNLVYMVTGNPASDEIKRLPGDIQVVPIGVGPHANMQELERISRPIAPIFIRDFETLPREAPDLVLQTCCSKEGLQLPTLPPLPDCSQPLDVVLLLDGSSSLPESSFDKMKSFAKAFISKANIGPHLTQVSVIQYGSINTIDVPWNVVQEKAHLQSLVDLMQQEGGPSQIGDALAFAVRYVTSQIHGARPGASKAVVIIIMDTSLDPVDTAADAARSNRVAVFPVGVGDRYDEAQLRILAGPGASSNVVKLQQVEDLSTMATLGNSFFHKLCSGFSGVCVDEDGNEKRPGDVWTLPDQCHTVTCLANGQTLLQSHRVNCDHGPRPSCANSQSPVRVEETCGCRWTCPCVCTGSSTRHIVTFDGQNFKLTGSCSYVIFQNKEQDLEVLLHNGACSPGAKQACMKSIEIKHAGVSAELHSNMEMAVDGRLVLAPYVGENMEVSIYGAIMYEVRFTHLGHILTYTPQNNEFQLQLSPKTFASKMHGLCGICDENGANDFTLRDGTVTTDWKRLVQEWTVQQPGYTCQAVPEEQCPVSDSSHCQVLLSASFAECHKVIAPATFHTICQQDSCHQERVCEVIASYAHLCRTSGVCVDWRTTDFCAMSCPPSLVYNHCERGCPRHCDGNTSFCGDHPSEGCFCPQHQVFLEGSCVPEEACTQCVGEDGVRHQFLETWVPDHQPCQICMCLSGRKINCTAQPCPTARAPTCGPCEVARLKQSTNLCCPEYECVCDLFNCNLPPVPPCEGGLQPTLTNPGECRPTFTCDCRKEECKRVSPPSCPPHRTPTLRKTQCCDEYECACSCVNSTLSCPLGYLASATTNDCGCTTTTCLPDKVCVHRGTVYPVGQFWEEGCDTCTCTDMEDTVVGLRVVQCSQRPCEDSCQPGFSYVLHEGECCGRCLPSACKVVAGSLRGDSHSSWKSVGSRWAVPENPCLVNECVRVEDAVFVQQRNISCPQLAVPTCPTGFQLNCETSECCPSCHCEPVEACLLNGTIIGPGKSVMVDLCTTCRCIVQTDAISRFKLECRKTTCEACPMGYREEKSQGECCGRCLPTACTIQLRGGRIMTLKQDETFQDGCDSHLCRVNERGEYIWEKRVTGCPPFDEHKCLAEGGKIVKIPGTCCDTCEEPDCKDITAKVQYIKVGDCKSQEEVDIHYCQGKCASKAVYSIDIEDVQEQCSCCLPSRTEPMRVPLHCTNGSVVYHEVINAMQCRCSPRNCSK", "assay": "microtiter binding assay, immobilised murine vWF"}, "[1]": {"biological_target": "T2, von Willebrand factor (VWF), purified plasma-derived, multimeric, native (UniProt P04275 764-2813)", "T2 construct": "mature; human is implied; also called pvWF; plasma VWF", "assay": "pull-down on VWF-Affi-gel 10, western blot with anti-V5 (FIG. 5B); the microtiter result is given with a literature citation", "description": "FIG. 5. Binding of ADAMTS13 (or variants) to VWF immobilized on solid surfaces. A. Binding of ADAMTS13 and variants to VWF immobilized on a microtiter plate: FL-A13, delCUB and MDTCS (0-200 nM) were incubated without (control) or with VWF (10 μg/ml, 100 μl/well) immobilized on a microtiter plate for 1 h. The bound ADAMTS13 and variants were determined by mouse anti-V5 IgG, followed by rabbit anti-mouse IgG, peroxidase-conjugated and OPD-H₂O₂. The KD (S) was determined by fitting the data into non-linear regression. B. Binding of ADAMTS13 and variants to immobilized VWF on Affi-gel 10: FL-A13, delCUB, MDTCS and metalloprotease domain (M) (˜50 nM) were incubated at 37° C. for 1 h without (−) or with (+) VWF covalently immobilized onto the Affi-gel 10. After extensive washing with TBS and 20 mM Tris-HCl, pH 7.5, […], the bound ADAMTS13 and variants were eluted from the beads with SDS-gel sample buffer and determined by Western blot with anti-V5. The amount of input FL-A13, delCUB, and MDTCS is the same with the signal of only FL-A13 shown in lane 1 (IN).\nThe binding of ADAMTS13 to immobilized Affi-gel 10 was also described previously²². […] The bound FL-A13 and variants were eluted from the beads by boiling them at 100° C. for 10 min and detected by Western blotting with anti-V5 IgG as described previously^{22;24;29}."}},
  "data": [
    {"binder": "canine FVIII-SQ (other, UniProt O18806 20-2343, looked up, also called canine B-domain deleted factor VIII) ATRKYYLGAVELSWDYMQSDLLSALHADTSFSSRVPGSLPLTTSVTYRKTVFVEFTDDLFNIAKPRPPWMGLLGPTIQAEVYDTVVIVLKNMASHPVSLHAVGVSYWKASEGAEYEDQTSQKEKEDDNVIPGESHTYVWQVLKENGPMASDPPCLTYSYFSHVDLVKDLNSGLIGALLVCKEGSLAKERTQTLQEFVLLFAVFDEGKSWHSETNASLTQAEAQHELHTINGYVNRSLPGLTVCHKRSVYWHVIGMGTTPEVHSIFLEGHTFLVRNHRQASLEISPITFLTAQTFLMDLGQFLLFCHIPSHQHDGMEAYVKVDSCPEEPQLRMKNNEDKDYDDGLYDSDMDVVSFDDDSSSPFIQIRSVAKKHPKTWVHYIAAEEEDWDYAPSGPTPNDRSHKNLYLNNGPQRIGKKYKKVRFVAYTDETFKTREAIQYESGILGPLLYGEVGDTLLIIFKNQASRPYNIYPHGINYVTPLHTGRLPKGVKHLKDMPILPGEIFKYKWTVTVEDGPTKSDPRCLTRYYSSFINLERDLASGLIGPLLICYKESVDQRGNQMMSDKRNVILFSVFDENRSWYLTENMQRFLPNADVVQPHDPEFQLSNIMHSINGYVFDNLQLSVCLHEVAYWYILSVGAQTDFLSVFFSGYTFKHKMVYEDTLTLFPFSGETVFMSMENPGLWVLGCHNSDFRNRGMTALLKVSSCNRNIDDYYEDTYEDIPTPLLNENNVIKPRSFSQNPPVSKHHQREITVTTLQPEEDKFEYDDTFSIEMKREDFDIYGDYENQGLRSFQKKTRHYFIAAVERLWDYGMSRSPHILRNRAQSGDVQQFKKVVFQEFTDGSFTQPLYRGELNEHLGLLGPYIRAEVEDNIVVTFKNQASRPYSFYSSLISYDEDEGQGAEPRRKFVNPNETKIYFWKVQHHMAPTKDEFDCKAWAYFSDVDLEKDVHSGLIGPLLICRSNTLNPAHGRQVTVQEFALVFTIFDETKSWYFTENLERNCRAPCNVQKEDPTLKENFRFHAINGYVKDTLPGLVMAQDQKVRWYLLSMGSNENIHSIHFSGHVFTVRKKEEYKMAVYNLYPGVFETVEMLPSQVGIWRIECLIGEHLQAGMSTLFLVYSKKCQTPLGMASGHIRDFQITASGQYGQWAPKLARLHYSGSINAWSTKDPFSWIKVDLLAPMIIHGIMTQGARQKFSSLYVSQFIIMYSLDGNKWHSYRGNSTGTLMVFFGNVDSSGIKHNIFNPPIIAQYIRLHPTHYSIRSTLRMELLGCDFNSCSMPLGMESKAISDAQITASSYLSSMLATWSPSQARLHLQGRTNAWRPQANNPKEWLQVDFRKTMKVTGITTQGVKSLLISMYVKEFLISSSQDGHNWTLFLQNGKVKVFQGNRDSSTPVRNRLEPPLVARYVRLHPQSWAHHIALRLEVLGCDTQQPA", "values": [
      {"measurement": "Kd", "setting": "murine vWF", "value": "~1.7", "unit": "nM"}
    ]},
    {"binder": "ADAMTS13 metalloprotease domain alone (enzyme, UniProt Q76LX8 75-289, looked up, domain: metalloprotease domain) AAGGILHLELLVAVGPDVFQAHQEDTERYVLTNLNIGAELLRDPSLGAQFRVHLVKMVILTEPEGAPNITANLTSSLLSVCGWSQTINPEDDTDPGHADLVLYITRFDLELPDGNRQVRGVTQLGGACSPTWSCLITEDTGFDLGVTIAHEIGHSFGLEHDGAPGSGCGPSGHVMASDGAAPRAGLAWSPCSRRQLLSLLSAGRARCVWDPPRPQ", "values": [
      {"measurement": "binding result", "setting": "[1]", "value": "no binding"}
    ]}
  ]
}
